Measurements reported in US20210261643A1, “INHIBITORS OF P-TEFB MEDIATED TRANSCRIPTION” (The Regents of the University of California, priority 2018, published 2021).

Key:
[1] = tested on: HIV reactivation in J-Lat 9.2 cells; assay: HIV reactivation in J-Lat 9.2 latent infection model, FACS of GFP positive cells; format: cell-based; conditions: PMA 100 nM
Excerpt: (§1) FIGS. 4A and 4B. Stable expression of HT1 inhibits HIV reactivation. FIG. 4A: Stable expression of HT1 inhibits HIV reactivation from 2D10 cells. 3f:HT1 was stably expressed in 2D10 cells (D-HT cells). […] Error bars represent standard deviation from triplicate FACS analysis. FIG. 4B: Stable expression of HT1 inhibits HIV reactivation from J-Lat 9.2 cells. 3f:HT1 was stably expressed in J-Lat 9.2 cells (L-HT cells). […] Error bars represent standard deviation from triplicate FACS analysis.
To test the effect of HT1 on HIV-1 in T-lymphocyte derived cells, 3f:HT1 was stably expressed in HIV latent infection models 2D10 and J-Lat 9.2 cells (D-HT and L-HT cells respectively), which carry replication-defective, GFP-flagged HIV proviruses. In both 2D10 and J-Lat 9.2, the basal HIV transcription level is undetectable, as measured through GFP expression. Compounds such as the PKC agonist PMA, the histone deacetylase inhibitor SAHA or the BET bromodomain inhibitor JQ1 reactivate HIV transcription and increase GFP-positive cells detected by FACS analysis. 2D10 cells are more sensitive to HIV reactivation than J-Lat 9.2 cells, though they harbor a mutation in the N-terminal sequence of Tat (H13L). 2D10 and D-HT cells were incubated for 24 hrs with PMA (10 nM), SAHA (5 μM) or JQ1 (1 μM) and GFP positive cells were detected by FACS analysis. […]

[2] = tested on: HIV-1 NL43; assay: Spreading infection with HIV-1 NL43, Gag p24 ELISA in supernatants; format: cell-based; conditions: 4 dpi
Excerpt: (§2) FIGS. 5A, 5B, 5C, and 5D. Stable expression of HT1 inhibits HIV replication. FIG. 5A. Stable expression of HT1 inhibits HIV-1 replication in C-HT cells. 1E+06 HT1-expressing CEM-HT cells and e control CEM cells were challenged by HIV-1 NL43 infection. FIG. 5B. Stable expression of HT1 inhibits HIV-1 replication in MO-HT cells. 1E+06 HT1-expressing MOLT4-HT cells, and control MOLT4 cells were challenged by HIV-1 NL43 infection. FIG. 5C. Stable expression of HT1 inhibits HIV-1 replication in MT-HT cells. 1E+06 HT1-expressing MT4-HT cells, and control MT4 cells were challenged by HIV-1 NL43 infection. In each of FIGS. 5A, 5B, and 5C, virus production was assessed by Gag p24 ELISA in supernatants when cells were passaged at days 0, 2 and 4, and plotted. Error bars represent standard deviation from triplicate experiments. FIG. 5D: Stable expression of HT1 doesn't inhibit early steps of HIV-1 infection in C-HT, MO-HT, and MT-HT cells. Single-round infection assays were performed in the same conditions as in FIG. 5A-C above, but using replication-defective HXB2 Env-pseudotyped HIV-1 NL43ΔenvLuc. The relative amount of HIV DNA integrated in the cells' genomic DNA was assessed after 24 h by qPCR. Error bars represent standard deviation from triplicate experiments.
(§3) On 2 dpi, virus production was detected from CEM, MOLT4 and MT4 cells and reached around 20 (CEM, MT4) to 110 (MOLT4) ng/mL p24 concentration in the supernatant on 4 dpi.

[3] = molecular target: T1, P-TEFb (CycT1) (Homo sapiens, UniProt O60563); assay: Co-immunoprecipitation of CycT1 from 293T cell lysates; format: binding
T1 construct: endogenous in cells; host or cells: 293T
T1 sequence (O60563 whole entry): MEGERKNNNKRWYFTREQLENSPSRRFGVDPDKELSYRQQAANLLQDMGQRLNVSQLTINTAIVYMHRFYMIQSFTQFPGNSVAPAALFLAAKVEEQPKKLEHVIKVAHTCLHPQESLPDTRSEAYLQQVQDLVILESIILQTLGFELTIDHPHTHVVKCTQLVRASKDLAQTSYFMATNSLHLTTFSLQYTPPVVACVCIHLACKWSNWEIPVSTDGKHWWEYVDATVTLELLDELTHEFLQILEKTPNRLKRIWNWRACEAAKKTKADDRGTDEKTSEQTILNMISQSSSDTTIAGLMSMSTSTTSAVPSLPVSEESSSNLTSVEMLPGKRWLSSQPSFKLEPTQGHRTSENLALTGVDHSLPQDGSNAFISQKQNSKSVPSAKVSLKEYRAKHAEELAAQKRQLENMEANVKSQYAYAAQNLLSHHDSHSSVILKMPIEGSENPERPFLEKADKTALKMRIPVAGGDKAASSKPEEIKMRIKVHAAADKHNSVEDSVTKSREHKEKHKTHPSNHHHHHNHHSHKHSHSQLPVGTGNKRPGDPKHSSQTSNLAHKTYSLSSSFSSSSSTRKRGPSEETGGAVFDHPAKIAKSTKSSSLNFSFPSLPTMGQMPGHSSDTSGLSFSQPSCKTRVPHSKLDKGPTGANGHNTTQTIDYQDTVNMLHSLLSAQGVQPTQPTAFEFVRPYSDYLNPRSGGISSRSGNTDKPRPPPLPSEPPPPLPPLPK
T1 sequence (P50750 whole entry partner): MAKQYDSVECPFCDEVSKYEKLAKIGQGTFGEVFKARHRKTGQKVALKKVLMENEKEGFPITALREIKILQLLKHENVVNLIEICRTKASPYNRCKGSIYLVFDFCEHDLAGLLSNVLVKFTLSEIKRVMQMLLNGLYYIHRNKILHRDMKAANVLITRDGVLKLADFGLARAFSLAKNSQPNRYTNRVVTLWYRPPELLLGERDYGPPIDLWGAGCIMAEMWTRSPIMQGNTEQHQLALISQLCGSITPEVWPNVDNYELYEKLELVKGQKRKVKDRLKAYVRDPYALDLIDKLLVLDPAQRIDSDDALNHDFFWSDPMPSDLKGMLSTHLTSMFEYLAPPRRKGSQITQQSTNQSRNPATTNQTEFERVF
Excerpt: We next investigated the mechanisms by which HT1 can prevent HIV gene expression.

[4] = tested on: 7SK snRNA; assay: Binding to endogenous 7SK snRNA
Excerpt: Finally, since HEXIM1 ARM resembles the TAR-binding domain from Tat, we investigated whether HT1 could bind to HIV TAR. m:HT1 or m:Tat was co-expressed in 293T cells with TAR RNA, expressed under RNA Polymerase III dependent H1 promoter, and immunoprecipitated using anti-Myc Ab or IgG as a control. TAR RNAs co-immunoprecipitated with HT1 or Tat were quantified by RT-qPCR analysis. […] To test whether HT1 affects Tat-TAR interactions, increasing amounts of m:HT1 were also co-expressed with a fixed amount of f:Tat and TAR. […] As expected, HT1 also bound to endogenous 7SK snRNA.

[5] = tested on: CEM, MOLT4, and MT4 T cell lines; assay: Cell growth of T cell lines stably expressing HT1 (total viable cell count); format: cell-based; conditions: C-HT, MO-HT, MT-HT vs CEM, total viable cell count over time
Procedure: Finally, the impact of HT1 on cell growth was assessed using three T cell lines (CEM, MOLT4, and MT4) infected by a lentivirus expressing a triple Flag-epitope tagged HT1 (3f:HT1). Polyclonal population of HT1-expressing cells (C-HT, MO-HT, and MT-HT, respectively) was selected by puromycin and confirmed by BFP expression detected by FACS analysis and WB. […] This confirmed that HT1 was specific to HIV inhibition, and that the few off-target effects had little impact on the metabolism of the cells.

[6] = tested on: early steps of HIV infection (HIV-1 NL43ΔenvLuc); assay: Single-round infection with Env-pseudotyped replication-defective HIV, proviral DNA by qPCR; format: cell-based; conditions: C-HT, MO-HT, MT-HT cells
Excerpt: as §2, with “qPCR. […]” for “qPCR. Error bars represent standard deviation from triplicate experiments.”
as §3

[7] = tested on: HIV reactivation in 2D10 cells; assay: HIV reactivation in 2D10 latent infection model, FACS of GFP positive cells; format: cell-based; conditions: D-HT cells, 24 hrs
Excerpt: as §1
To test the effect of HT1 on HIV-1 in T-lymphocyte derived cells, 3f:HT1 was stably expressed in HIV latent infection models 2D10 and J-Lat 9.2 cells (D-HT and L-HT cells respectively), which carry replication-defective, GFP-flagged HIV proviruses. In both 2D10 and J-Lat 9.2, the basal HIV transcription level is undetectable, as measured through GFP expression. Compounds such as the PKC agonist PMA, the histone deacetylase inhibitor SAHA or the BET bromodomain inhibitor JQ1 reactivate HIV transcription and increase GFP-positive cells detected by FACS analysis. 2D10 cells are more sensitive to HIV reactivation than J-Lat 9.2 cells, though they harbor a mutation in the N-terminal sequence of Tat (H13L). 2D10 and D-HT cells were incubated for 24 hrs with PMA (10 nM), SAHA (5 μM) or JQ1 (1 μM) and GFP positive cells were detected by FACS analysis. PMA, SAHA and JQ1 reactivated HIV from 65%, 71% and 58% less D-HT cells than from control 2D10 cells, respectively. Due to the limited HIV reactivation by SAHA and JQ1 in J-Lat 9.2 cells, we only treated them with PMA (100 nM), which induced a 12% increase in GFP expression.

B1: HT1 (protein)
chain: KKKHRRRPSKKKRHWKPYYKLTWEEKKKFDEKQSLRASRIRAEMFAKGQPVAPYNTTQFLMDDHDQEEPDLVDMEPVDPYLEPWKHPGSQPRTACNNCYCKKCCFHCYACFTRKGLGISYG
modifications: left off: small tags and cut ends
- decrease of GFP expression in L-HT compared to J-Lat 9.2 [1]: 94%
- p24 concentration in supernatant ([2]; C-HT cells): 5.1
- p24 concentration in supernatant ([2]; MO-HT cells): 12 ng/mL
- p24 concentration in supernatant ([2]; MT-HT cells): 1.3 ng/mL
- amounts of CycT1 co-immunoprecipitating with f:Tat ([3]; fixed amount of f:Tat, increasing amounts of m:HT1): decreased
- binding to CycT1 by co-immunoprecipitation ([3]; transient expression in 293T cells, anti-Myc or anti-Flag Abs): bound to CycT1
- binding to endogenous 7SK snRNA [4]: bound
- cellular growth rate versus control cells [5]: no difference
- early steps of HIV infection (proviral DNA by qPCR) [6]: not affected
- fewer cells with reactivated HIV (GFP positive) than control 2D10 cells ([7]; JQ1 1 μM): 58%
- fewer cells with reactivated HIV (GFP positive) than control 2D10 cells ([7]; PMA 10 nM): 65%
- fewer cells with reactivated HIV (GFP positive) than control 2D10 cells ([7]; SAHA 5 μM): 71%
